Results as given in patent US20230147852A1 (SORRENTO THERAPEUTICS, published 2023).

Target: T1, Recombinant human LAG3-His (Sino Biological; catalogue No. 16498-H08H) (human, UniProt P18627 23-450)
T1 construct: also called human LAG3 His-tag protein; CD223
T1 sequence: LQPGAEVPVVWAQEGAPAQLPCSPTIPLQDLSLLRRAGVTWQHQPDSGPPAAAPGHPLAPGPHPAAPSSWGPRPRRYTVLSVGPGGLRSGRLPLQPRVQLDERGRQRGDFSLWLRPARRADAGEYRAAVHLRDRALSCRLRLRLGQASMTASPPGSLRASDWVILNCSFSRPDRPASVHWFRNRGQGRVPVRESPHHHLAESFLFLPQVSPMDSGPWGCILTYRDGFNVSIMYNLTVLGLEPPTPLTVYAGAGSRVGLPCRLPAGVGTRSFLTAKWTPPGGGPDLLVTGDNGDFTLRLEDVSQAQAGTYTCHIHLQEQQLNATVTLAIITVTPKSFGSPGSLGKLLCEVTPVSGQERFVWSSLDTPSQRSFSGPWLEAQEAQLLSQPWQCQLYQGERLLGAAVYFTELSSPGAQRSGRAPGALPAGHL
Assay: ELISA: antibody coated at 5 µg/mL, soluble human LAG3-His titrated (x-axis: Human LAG3, µg/ml), OD at 450nm

B1: 2D12-2E3-N102D (antibody, V domains shown)
VH: EVQLVESGGGLVQPGRSLRLSCVASGDGMSDYDMHWVRQAPGKGLEWVSGIGWNSGTIDYADSVKGRFIISRDNAKNSLYLQMNSLRPEDTALYYCAKEILDYSWMSVYGMDVWGQGTTVTVSS
VL: DIQMTQSPSSLSASVGDRVTITCRASQNIGTYLNWYQQSPGKAPKLLIYGASSLHSGVPSRVSGSGSGTDFTLTINTLQPEDFATYFCQQSYNTPPTFGQGTKVEIK
notes: also called anti-LAG3 antibody 2D12-2E3-N102D
In the case of B1, the “EC50 (read off the curve)” value is reported as about 0.04 µg/mL.
